In patent US20150218257A1 (published 2015):

B1: 1496_C09 (PG9) human monoclonal antibody (antibody, V domains shown)
VH: QRLVESGGGVVQPGSSLRLSCAASGFDFSRQGMHWVRQAPGQGLEWVAFIKYDGSEKYHADSVWGRLSISRDNSKDTLYLQMNSLRVEDTATYFCVREAGGPDYRNGYNYYDFYDGYYNYHYMDVWGKGTTVTVSS
VL: QSALTQPASVSGSPGQSITISCNGTSNDVGGYESVSWYQQHPGKAPKVVIYDVSKRPSGVSNRFSGSKSGNTASLTISGLQAEDEGDYYCKSLTSTRRRVFGTGTKLTVLG
B2: 1443_C16 (PG16) human monoclonal antibody (antibody, V domains shown)
VH: QEQLVESGGGVVQPGGSLRLSCLASGFTFHKYGMHWVRQAPGKGLEWVALISDDGMRKYHSDSMWGRVTISRDNSKNTLYLQFSSLKVEDTAMFFCAREAGGPIWHDDVKYYDFNDGYYNYHYMDVWGKGTTVTVSS
VL: QSALTQPASVSGSPGQTITISCNGTSSDVGGFDSVSWYQQSPGKAPKVMVFDVSHRPSGISNRFSGSKSGNTASLTISGLHIEDEGDYFCSSLTDRSHRIFGGGTKVTVLG

How the values were obtained:
[1] = biological target: HIV-1 ADA Env (gp160), on transfected 293 cells or on ADA pseudovirus (HIV-1 strain ADA); assay: cell-based or functional assay
[2] = biological target: HIV-1 92RW020 Env on pseudovirus (HIV-1 strain 92RW020); assay: cell-based or functional assay
[3] = biological target: HIV-1 JR-FL(E168K) Env on pseudovirus (HIV-1 strain JR-FL); assay: cell-based or functional assay
[4] = biological target: T1, HIV-1 YU2 gp160 expressed on the surface of transfected 293/293T cells (HIV-1 strain YU2, UniProt P35961 32-843); assay: binding to YU2 gp160 on the cell surface (FIG. 7)
T1 construct: whole, on cells

Binder | IC50 (ug/ml), pseudovirus neutralisation, TZM-bl assay [1] | IC50 (ug/ml), pseudovirus neutralisation, TZM-bl assay [2] | IC50 (ug/ml), pseudovirus neutralisation, TZM-bl assay [3] | binding result [4]
B1 | 0.2 µg/mL | 0.1 µg/mL |  | 
B2 | 0.004 µg/mL | 0.09 µg/mL | 0.006 µg/mL | binds
